Laboratory results reported in paper PMC9609871 (2022).

Molecular target: PP2A catalytic subunit alpha (Homo sapiens, UniProt P67775)
Experiment: biolayer interferometry (PP2A immobilized)

PP2A catalytic subunit alpha, sequence (P67775 whole entry): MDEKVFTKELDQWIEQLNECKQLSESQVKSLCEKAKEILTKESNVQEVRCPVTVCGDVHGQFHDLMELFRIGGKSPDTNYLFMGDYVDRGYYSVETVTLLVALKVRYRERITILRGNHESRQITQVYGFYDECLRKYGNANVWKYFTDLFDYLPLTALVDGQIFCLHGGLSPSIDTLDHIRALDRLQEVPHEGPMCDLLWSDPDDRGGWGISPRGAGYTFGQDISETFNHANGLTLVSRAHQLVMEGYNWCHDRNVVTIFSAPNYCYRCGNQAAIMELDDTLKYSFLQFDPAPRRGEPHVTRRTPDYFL

B1: Caspase 9 (protein)
chain: DEADRRLLRRCRLRLVEELQVDQLWDALLSRELFRPHMIEDIQRAGSGSRRDQARQLIIDLETRGSQALPLFISCLEDTGQDMLASFLRTNRQAAKLSKPTLENLTPVVLRPEIRKPEVLRPETPRPVDIGSGGFGDVGALESLRGNADLAYILSMEPCGHCLIINNVNFCRESGLRTRTGSNIDCEKLRRRFSSLHFMVEVKGDLTAKKMVLALLELAQQDHGALDCCVVVILSHGCQASHLQFPGAVYGTDGCPVSVEKIVNIFNGTSCPSLGGKPKLFFIQACGGEQKDHGFEVASTSPEDESPGSNPEPDATPFQEGLRTFDQLDAISSLPTPSDIFVSYSTFPGFVSWRDPKSGSWYVETLDDIFEQWAHSEDLQSLLLRVANAVSVKGIYKQMPGCFNFLRKKLFFKTS
- Kd: 228 nM
